The source of these data is article PMC11090158.

In this experiment the target is GST-tag DNA polymerase (pol) β, wild-type (human) (UniProt P06746). In words: SPR. Background: Surface plasmon resonance follows binding to a sensor surface in real time, without labels.

Substance “X-ray cross-complementing protein 1 (XRCC1) V86R, 6x-his tag (from UniProt P18887 1-633) (natural protein)” gave a Kd of 2700 nM.

One may read the Kd as the free concentration of one partner at which half of the binding sites on the other are occupied at equilibrium, for simple one-to-one binding. A lower Kd goes with a tighter complex.
